From US20170165337A1 (IMMATICS BIOTECHNOLOGIES, published 2017) come the findings set out here.

This experiment deals with T1, HLA-A*02:01 (human).
T1 construct: MHC class I monomer of the UV-ligand exchange assay; also called peptide-receptive MHC molecules; MHC class I
Kind of experiment: UV peptide-exchange ELISA. Put shortly:
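Peptide-MHC complexes formed by UV-mediated exchange of a UV-cleavable peptide for the test peptide; exchange yield quantified by β2m ELISA. Diluted 100-fold, captured on streptavidin-coated plates 1 h at 37 °C, detected with HRP anti-β2m and TMB at 450 nm against refolded HLA-A*02:01 monomer standards (15-500 ng/ml).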

B1: FVLDHEDGLNL (peptide)
peptide: FVLDHEDGLNL
B1 registered a peptide exchange yield of 50 to 75%.

B2: SLIKYFLFV (peptide)
peptide: SLIKYFLFV
Turning to B2, the peptide exchange yield lay in the range of 10 to 20%.

B3: GLQSGVDIGV (peptide)
peptide: GLQSGVDIGV
B3: the peptide exchange yield lay in the range of 50 to 75%.

B4: SLAHVAGCEL (peptide)
peptide: SLAHVAGCEL
In turn, B4 returned a peptide exchange yield of 50 to 75%.

B5: HQIEAVDGEEL (peptide)
peptide: HQIEAVDGEEL
B5 returned a peptide exchange yield of 20 to 50%.

B6: GLDQQFAGLDL (peptide)
peptide: GLDQQFAGLDL
In turn, B6 returned a peptide exchange yield of 10 to 20%.

B7: GLDDVTVEV (peptide)
peptide: GLDDVTVEV
Consider B7, for which the peptide exchange yield lay in the range of 20 to 50%.

B8: GLQAKIQEA (peptide)
peptide: GLQAKIQEA
B8 had a peptide exchange yield of 50 to 75%.

B9: ALLERTGYTL (peptide)
peptide: ALLERTGYTL
B9 registered a peptide exchange yield of 50 to 75%.

B10: ILDEIGADVQA (peptide)
peptide: ILDEIGADVQA
Molecule B10 registered a peptide exchange yield of 50 to 75%.

B11: SLAGGLDDMKA (peptide)
peptide: SLAGGLDDMKA
B11: the peptide exchange yield was in the range of 50 to 75%.

B12: KLLESVASA (peptide)
peptide: KLLESVASA
For the molecule B12, the peptide exchange yield lay within 50 to 75%.

B13: ALIFKIASA (peptide)
peptide: ALIFKIASA
Molecule B13 gave a peptide exchange yield of 50 to 75%.

B14: FVPDTPVGV (peptide)
peptide: FVPDTPVGV
As to B14, the peptide exchange yield is 50 to 75%.

B15: VLIEDELEEL (peptide)
peptide: VLIEDELEEL
Molecule B15 showed a peptide exchange yield of 20 to 50%.

B16: ILDFGTFQL (peptide)
peptide: ILDFGTFQL
Molecule B16 gave a peptide exchange yield of 50 to 75%.

B17: YIIDSAQAV (peptide)
peptide: YIIDSAQAV
Take B17: the peptide exchange yield lay in the range of 50 to 75%.

B18: ALCDTLITV (peptide)
peptide: ALCDTLITV
In turn, B18 registered a peptide exchange yield of 50 to 75%.

B19: FMEPTLLML (peptide)
peptide: FMEPTLLML
B19 gave a peptide exchange yield of 50 to 75%.

B20: GIIDGSPRL (peptide)
peptide: GIIDGSPRL
In turn, B20 returned a peptide exchange yield of 50 to 75%.

B21: HLMLHTAAL (peptide)
peptide: HLMLHTAAL
Turning to B21, the peptide exchange yield is at least 75%.

B22: GLSIFAQDLRL (peptide)
peptide: GLSIFAQDLRL
B22 displayed a peptide exchange yield of 20 to 50%.

B23: ILFNTQINI (peptide)
peptide: ILFNTQINI
B23: the peptide exchange yield was in the range of 50 to 75%.

B24: GLLRASFLL (peptide)
peptide: GLLRASFLL
B24 registered a peptide exchange yield of 20 to 50%.

B25: FLSPQQPPLL (peptide)
peptide: FLSPQQPPLL
B25 returned a peptide exchange yield of 50 to 75%.

B26: GVMDVNTAL (peptide)
peptide: GVMDVNTAL
B26: the peptide exchange yield was 20 to 50%.

B27: ILDLNTYNV (peptide)
peptide: ILDLNTYNV
As for B27, the peptide exchange yield lay within 50 to 75%.

B28: ILIDKTSFV (peptide)
peptide: ILIDKTSFV
In the case of B28, the peptide exchange yield was in the range of 50 to 75%.

B29: FLFEPVVKAFL (peptide)
peptide: FLFEPVVKAFL
B29: the peptide exchange yield lay within 50 to 75%.

B30: FLYPFPLALF (peptide)
peptide: FLYPFPLALF
As to B30, the peptide exchange yield fell in the range of 50 to 75%.

B31: ALDTLEDDMTI (peptide)
peptide: ALDTLEDDMTI
B31 gave a peptide exchange yield of 50 to 75%.

B32: GLLDAGKMYV (peptide)
peptide: GLLDAGKMYV
For B32, the peptide exchange yield was 50 to 75%.

B33: FLWQHVELVL (peptide)
peptide: FLWQHVELVL
Molecule B33 had a peptide exchange yield of 50 to 75%.

B34: ILNNEVFAI (peptide)
peptide: ILNNEVFAI
In turn, B34 showed a peptide exchange yield of 50 to 75%.

B35: GLPSFLTEV (peptide)
peptide: GLPSFLTEV
Turning to B35, the peptide exchange yield was in the range of 50 to 75%.

B36: FLVEAPHDWDL (peptide)
peptide: FLVEAPHDWDL
Turning to B36, the peptide exchange yield was at least 75%.

B37: FLTDLFAQL (peptide)
peptide: FLTDLFAQL
On to B37, for which the peptide exchange yield is at least 75%.

B38: FLPELPADLEA (peptide)
peptide: FLPELPADLEA
B38 displayed a peptide exchange yield of 50 to 75%.

B39: GQGEVLVYV (peptide)
peptide: GQGEVLVYV
As to B39, the peptide exchange yield was 50 to 75%.

B40: HLYPGAVTI (peptide)
peptide: HLYPGAVTI
As for B40, the peptide exchange yield lay within 50 to 75%.

B41: LLFATQITL (peptide)
peptide: LLFATQITL
As for B41, the peptide exchange yield lay in the range of 20 to 50%.

B42: FLSDQPEPYL (peptide)
peptide: FLSDQPEPYL
B42 displayed a peptide exchange yield of 20 to 50%.

B43: ILGYMAHEHKV (peptide)
peptide: ILGYMAHEHKV
On to B43, for which the peptide exchange yield lay within 20 to 50%.

B44: FVFGDENGTVSL (peptide)
peptide: FVFGDENGTVSL
In turn, B44 had a peptide exchange yield of 50 to 75%.

B45: FVFEAPYTL (peptide)
peptide: FVFEAPYTL
B45 came in with a peptide exchange yield of 50 to 75%.

B46: ILEPLNPLL (peptide)
peptide: ILEPLNPLL
The molecule B46 came in with a peptide exchange yield of 50 to 75%.

B47: GLKHDIARV (peptide)
peptide: GLKHDIARV
Take B47: the peptide exchange yield was 50 to 75%.

B48: VIADLGLIRV (peptide)
peptide: VIADLGLIRV
Molecule B48 gave a peptide exchange yield of 50 to 75%.

B49: GLLEVISALQL (peptide)
peptide: GLLEVISALQL
B49 yielded a peptide exchange yield of 50 to 75%.

B50: WLVGQEFEL (peptide)
peptide: WLVGQEFEL
In turn, B50 had a peptide exchange yield of 50 to 75%.

B51: ILIFHSVAL (peptide)
peptide: ILIFHSVAL
Regarding B51, the peptide exchange yield is 50 to 75%.

B52: GLSEISLRL (peptide)
peptide: GLSEISLRL
Turning to B52, the peptide exchange yield is at least 75%.

B53: ILVVIEPLL (peptide)
peptide: ILVVIEPLL
B53: the peptide exchange yield was at least 75%.

B54: FLVETGFLHV (peptide)
peptide: FLVETGFLHV
As for B54, the peptide exchange yield was at least 75%.

B55: GLLRIIPYL (peptide)
peptide: GLLRIIPYL
B55 had a peptide exchange yield of 50 to 75%.

B56: GLDDMKANL (peptide)
peptide: GLDDMKANL
Molecule B56 returned a peptide exchange yield of 20 to 50%.

B57: FVYFIVREV (peptide)
peptide: FVYFIVREV
As to B57, the peptide exchange yield was in the range of 50 to 75%.

B58: YIQQGIFSV (peptide)
peptide: YIQQGIFSV
B58 came in with a peptide exchange yield of 50 to 75%.

B59: ALAASALPALV (peptide)
peptide: ALAASALPALV
For B59, the peptide exchange yield was 50 to 75%.

B60: GLHQREIFL (peptide)
peptide: GLHQREIFL
The molecule B60 had a peptide exchange yield of 50 to 75%.

B61: ILFPLRFTL (peptide)
peptide: ILFPLRFTL
B61 came in with a peptide exchange yield of 50 to 75%.
